Measurements: US20180362631A1 (Eli Lilly, published 2018)
Changes are numbered by the printed parent chain. One block for each binder: values may come before it.

Experiments:
[1] = target: T1, human CXCL8 point mutant L49A (human, UniProt P10145 28-99, limits assumed); assay: cell-based or functional assay
human CXCL8 (IL-8) [2] = target: T2, human CXCL8 (IL-8) (human, UniProt P10145 28-99); assay: cell-based or functional assay
T2 sequence: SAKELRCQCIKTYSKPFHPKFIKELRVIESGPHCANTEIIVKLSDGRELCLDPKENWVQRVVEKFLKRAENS

[3] = target: human CXCL8 point mutant I40A (human, UniProt P10145 28-99, limits assumed); assay: SPR (Biacore 2000), antibody captured on Protein A, CXCL8 variant as analyte, 25 C
Description: (§1) Binding kinetics are tested on a Biacore 2000 instrument with Biacore 2000 Evaluation Software Version 4.1 as described above.
(§2) The on-rate (kₒₙ) and off-rate (koff) for each ligand are evaluated using a “1:1 (mass transfer) Binding” binding model. The affinity (KD) is calculated from the binding kinetics according to the relationship: KD=koff/kₒₙ.

[4] = target: human CXCL8 point mutant A35P (human, UniProt P10145 28-99, limits assumed); assay: as above
Description: as §1, §2

[5] = target: T1, human CXCL8 point mutant L49A; assay: as above
Description: as §1, §2

[6] = target: human CXCL8 point mutant I10A (human, UniProt P10145 28-99, limits assumed); assay: as above
Description: as §1, §2

human CXCL8 (IL-8) [7] = target: T2, human CXCL8 (IL-8); assay: as above
Description: as §1, §2

human CXCL7 (NAP-2) = target: T3, human CXCL7 (NAP-2) (human, UniProt P02775 59-128); assay: SPR (Biacore 2000), antibody captured on Protein A, chemokine as analyte, 25 C
T3 construct: also called human NAP-2
T3 sequence: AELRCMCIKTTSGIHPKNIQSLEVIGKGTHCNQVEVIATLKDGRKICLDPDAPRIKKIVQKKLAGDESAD
Description: (§3) Biacore 2000 instrument and Biacore 2000 Evaluation Software Version 4.1 are used for surface plasmon resonance analysis. A […] chip is prepared using manufacturer's EDC/NHS amine coupling method. Briefly, the surfaces of all four flow cells are activated by injecting a 1:1 mixture of EDC/NHS for 7 minutes at 10 μL/min. Protein A is diluted to 100 μg/mL in 10 mM acetate, pH 4.5 buffer, and immobilized to achieve approximately 10,000 RU onto all 4 flow cells by 7-minute injection at a flow rate of 10 μL/minute. Unreacted sites are blocked with a 7-minute injection of ethanolamine at 10 μL/minute. Two injections of glycine (pH 1.5) for 30 seconds at 10 μL/minute are used to remove any non-covalently associated protein. Running buffer is HBS-EP+.
(§4) Antibody 1 or Antibody 2 is diluted to 2 μg/mL in running buffer, and approximately 400-600 RU is captured in flow cell (Fc). Ligands are diluted from 100 μg/mL to 50 nM in running buffer and then two-fold serially diluted in running buffer to 3.125 nM. Duplicate injections of each ligand concentration are injected at 100 μL/min for 150 seconds followed by a dissociation phase. The dissociation phase is 1800 seconds for all ligands. Regeneration is performed by injecting 10 mM glycine (pH 1.5) for 60 seconds at […] over all flow cells. Reference-subtracted data is collected as Fc2-Fc1, Fc3-Fc1, and Fc4-Fc1. The measurements are obtained at 25° C. The on-rate (kₒₙ) and off-rate (koff) for each ligand are evaluated using a “1:1 (mass transfer) Binding” binding model. The affinity […] is calculated from the binding kinetics according to the relationship: KD=koff/kₒₙ.

human CXCL5 (ENA-78) = target: T4, human CXCL5 (ENA-78) (human, UniProt P42830 41-114); assay: as above
T4 construct: also called human ENA-78
T4 sequence: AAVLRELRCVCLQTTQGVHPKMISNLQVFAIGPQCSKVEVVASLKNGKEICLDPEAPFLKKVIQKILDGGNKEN
Description: as §3, §4

human CXCL6 (GCP-2) = target: T5, human CXCL6 (GCP-2) (human, UniProt P80162 40-114); assay: as above
T5 construct: also called human GCP-2
T5 sequence: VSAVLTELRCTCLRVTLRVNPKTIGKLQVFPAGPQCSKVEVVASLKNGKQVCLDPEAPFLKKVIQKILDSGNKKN
Description: as §3, §4

human CXCL2 (Gro beta) = target: T6, human CXCL2 (Gro beta) (human, UniProt P19875 35-107); assay: as above
T6 construct: also called human Gro-beta
T6 sequence: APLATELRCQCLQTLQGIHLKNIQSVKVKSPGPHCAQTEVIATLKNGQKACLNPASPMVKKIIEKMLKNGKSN
Description: as §3, §4

human CXCL1 (Gro alpha) [8] = target: T7, human CXCL1 (Gro alpha) (human, UniProt P09341 35-107); assay: as above
T7 construct: also called human Gro-alpha
T7 sequence: T6 sequence with P2S, L3V, L20P, K27N, Q48R, M58I, K68N, N69S, G70D
Description: as §3, §4

human CXCL3 (Gro gamma) = target: T8, human CXCL3 (Gro gamma) (human, UniProt P19876 35-107); assay: as above
T8 construct: also called human Gro-gamma
T8 sequence: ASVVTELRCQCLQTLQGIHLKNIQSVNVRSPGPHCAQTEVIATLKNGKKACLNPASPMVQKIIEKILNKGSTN
Description: as §3, §4

human CXCL8 (IL-8) [9] = target: T2, human CXCL8 (IL-8); assay: as above
Description: as §3, §4

[10] = target: human CXCL8 point mutant R6A (human, UniProt P10145 28-99, limits assumed); assay: SPR (Biacore 2000), antibody captured on Protein A
human CXCL1 (Gro alpha) [11] = target: T7, human CXCL1 (Gro alpha); assay: cell-based or functional assay
human CXCL8 (IL-8) [12] = target: T2, human CXCL8 (IL-8); assay: cell-based or functional assay; remark: listed apart in the source

IC50 (U937 FLIPR neutralization) [1]: 1.5 µg/mL
IC50 (U937 FLIPR neutralization) (human CXCL8 (IL-8) [2]): 0.9 µg/mL
Kd [3]: 27100 pM
koff [3]: 0.000424 s⁻¹
kon [3]: 16100 M⁻¹ s⁻¹
Kd [4]: 4740 pM
koff [4]: 0.00497 s⁻¹
kon [4]: 1.06e+06 M⁻¹ s⁻¹
Kd [5]: 3830 pM
koff [5]: 0.000544 s⁻¹
kon [5]: 143000 M⁻¹ s⁻¹
Kd [6]: 1260 pM
koff [6]: 0.000344 s⁻¹
kon [6]: 277000 M⁻¹ s⁻¹
Kd (human CXCL8 (IL-8) [7]): 236 pM
koff (human CXCL8 (IL-8) [7]): 0.000441 s⁻¹
kon (human CXCL8 (IL-8) [7]): 3.03e+06 M⁻¹ s⁻¹
Kd (human CXCL7 (NAP-2)): 181 pM
koff (human CXCL7 (NAP-2)): 0.000161 s⁻¹
kon (human CXCL7 (NAP-2)): 900000 M⁻¹ s⁻¹
Kd (human CXCL5 (ENA-78)): 226 pM
koff (human CXCL5 (ENA-78)): 0.000122 s⁻¹
kon (human CXCL5 (ENA-78)): 543000 M⁻¹ s⁻¹
Kd (human CXCL6 (GCP-2)): 818 pM
koff (human CXCL6 (GCP-2)): 0.000578 s⁻¹
kon (human CXCL6 (GCP-2)): 707000 M⁻¹ s⁻¹
Kd (human CXCL2 (Gro beta)): 171 pM
koff (human CXCL2 (Gro beta)): 0.000131 s⁻¹
kon (human CXCL2 (Gro beta)): 773000 M⁻¹ s⁻¹
Kd (human CXCL1 (Gro alpha) [8]): 113 pM
koff (human CXCL1 (Gro alpha) [8]): 0.000105 s⁻¹
kon (human CXCL1 (Gro alpha) [8]): 930000 M⁻¹ s⁻¹
Kd (human CXCL3 (Gro gamma)): 172 pM
koff (human CXCL3 (Gro gamma)): 0.000123 s⁻¹
kon (human CXCL3 (Gro gamma)): 716000 M⁻¹ s⁻¹
Kd (human CXCL8 (IL-8) [9]): 384 pM
koff (human CXCL8 (IL-8) [9]): 0.00013 s⁻¹
kon (human CXCL8 (IL-8) [9]): 339000 M⁻¹ s⁻¹
binding result [10]: no binding
IC50, chemotaxis of primary human neutrophils, CXCL1 at 5 nM (human CXCL1 (Gro alpha) [11]): 18500 pM
IC50, chemotaxis of primary human neutrophils, CXCL1 at 20 nM (human CXCL1 (Gro alpha) [11]): 40300 pM
IC50, chemotaxis of primary human neutrophils, CXCL8 at 5 nM (human CXCL8 (IL-8) [12]): 26400 pM
IC50, chemotaxis of primary human neutrophils, CXCL8 at 10 nM (human CXCL8 (IL-8) [12]): 43700 pM
B1: Antibody 1 (antibody, human IgG4 S228P, kappa, V domains shown)
VH: QVQLVQSGAEVKKPGASVKVSCKASGYEFTSYWIHWVRQAPGQGLEWMGNISPNSGSANYNEKFKSRVTMTRDTSTSTVYMELSSLRSEDTAVYYCAREGPYSYYPSREYYGSDLWGQGTLVTVSS
VL: EIVLTQSPATLSLSPGERATLSCRASQSISNNLHWYQQKPGQAPRLLIYYTSRSVSGIPARFSGSGSGTDFTLTISSLEPEDFAVYYCGQNNEWPEVFGGGTKVEIKR
notes: Full-length IgG4 antibody expressed in NS0 cells

Kd (human CXCL7 (NAP-2)): 418 pM
koff (human CXCL7 (NAP-2)): 0.000218 s⁻¹
kon (human CXCL7 (NAP-2)): 521000 M⁻¹ s⁻¹
Kd (human CXCL5 (ENA-78)): 354 pM
koff (human CXCL5 (ENA-78)): 0.000151 s⁻¹
kon (human CXCL5 (ENA-78)): 427000 M⁻¹ s⁻¹
Kd (human CXCL6 (GCP-2)): 849 pM
koff (human CXCL6 (GCP-2)): 0.000611 s⁻¹
kon (human CXCL6 (GCP-2)): 719000 M⁻¹ s⁻¹
Kd (human CXCL2 (Gro beta)): 180 pM
koff (human CXCL2 (Gro beta)): 2.05e-05 s⁻¹
kon (human CXCL2 (Gro beta)): 114000 M⁻¹ s⁻¹
Kd (human CXCL1 (Gro alpha) [8]): 243 pM
koff (human CXCL1 (Gro alpha) [8]): 0.000153 s⁻¹
kon (human CXCL1 (Gro alpha) [8]): 628000 M⁻¹ s⁻¹
Kd (human CXCL3 (Gro gamma)): 379 pM
koff (human CXCL3 (Gro gamma)): 0.000176 s⁻¹
kon (human CXCL3 (Gro gamma)): 465000 M⁻¹ s⁻¹
Kd (human CXCL8 (IL-8) [9]): 473 pM
koff (human CXCL8 (IL-8) [9]): 0.000124 s⁻¹
kon (human CXCL8 (IL-8) [9]): 261000 M⁻¹ s⁻¹
B2: Antibody 2 (antibody, human IgG4 S228P, kappa, V domains shown)
VH: B1 VH with E109Q
VL: B1 VL
notes: as for B1
